Measurements reported in patent publication US5770717.

Biological target: activation domain-fused yeast RPB4 protein (RPB4 in JG4-5) (yeast (Saccharomyces cerevisiae)) (UniProt P20433)
Assay: two-hybrid interaction trap in yeast, beta-galactosidase assay with and without activation domain-fused RPB4

degree of enhancement of activation (beta-galactosidase assay): 60 fold
Substance: LexA-RPB7 fusion protein (yeast RPB7) (from UniProt P34087)
